Results: patent US20240400657A1 (MorphoSys, published 2024)
Numbering of substitutions follows the chain as printed.

T1: full length rat C5aR stably expressed on CHO Flp-In cells (rat (Rattus norvegicus), UniProt P97520 1-352)
T1 sequence: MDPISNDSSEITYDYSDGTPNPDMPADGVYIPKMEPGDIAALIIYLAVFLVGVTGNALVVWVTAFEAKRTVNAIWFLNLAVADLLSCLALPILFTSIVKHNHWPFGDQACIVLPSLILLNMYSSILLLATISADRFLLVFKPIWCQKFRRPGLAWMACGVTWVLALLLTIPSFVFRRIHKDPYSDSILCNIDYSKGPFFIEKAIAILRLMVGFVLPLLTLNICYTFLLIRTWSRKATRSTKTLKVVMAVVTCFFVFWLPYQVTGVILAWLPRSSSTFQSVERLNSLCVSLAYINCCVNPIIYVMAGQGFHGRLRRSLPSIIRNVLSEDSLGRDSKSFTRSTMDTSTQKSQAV

T2: full-length human ChemR23 expressed on CHO Flp-In cells (human, UniProt Q99788 1-373)
T2 construct: also called Chemokine-like receptor 1
T2 sequence: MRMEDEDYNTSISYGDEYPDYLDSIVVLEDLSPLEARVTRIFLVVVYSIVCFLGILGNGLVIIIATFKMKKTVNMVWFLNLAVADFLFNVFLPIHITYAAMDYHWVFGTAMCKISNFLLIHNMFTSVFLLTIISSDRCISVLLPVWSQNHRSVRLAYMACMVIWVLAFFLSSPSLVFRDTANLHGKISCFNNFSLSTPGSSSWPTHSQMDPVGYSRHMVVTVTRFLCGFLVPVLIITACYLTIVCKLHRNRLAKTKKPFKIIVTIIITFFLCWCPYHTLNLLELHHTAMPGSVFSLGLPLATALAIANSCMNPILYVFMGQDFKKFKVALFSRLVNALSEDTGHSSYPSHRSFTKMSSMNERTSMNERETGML

T3: full-length human C3aR expressed on CHO Flp-In cells (human, UniProt Q16581 1-482)
T3 construct: also called C3a anaphylatoxin chemotactic receptor
T3 sequence: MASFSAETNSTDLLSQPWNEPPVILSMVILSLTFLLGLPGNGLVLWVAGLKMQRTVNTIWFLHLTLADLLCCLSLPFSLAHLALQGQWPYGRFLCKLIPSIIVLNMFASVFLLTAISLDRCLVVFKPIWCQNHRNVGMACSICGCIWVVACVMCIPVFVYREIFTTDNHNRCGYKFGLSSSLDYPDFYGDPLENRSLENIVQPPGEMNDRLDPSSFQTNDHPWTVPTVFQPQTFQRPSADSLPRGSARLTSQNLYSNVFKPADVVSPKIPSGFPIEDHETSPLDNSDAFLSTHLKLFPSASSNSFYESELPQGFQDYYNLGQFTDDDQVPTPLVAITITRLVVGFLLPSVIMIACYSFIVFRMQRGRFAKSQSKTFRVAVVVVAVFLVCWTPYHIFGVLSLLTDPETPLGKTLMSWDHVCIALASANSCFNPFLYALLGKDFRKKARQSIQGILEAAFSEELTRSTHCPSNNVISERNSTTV

T4: full length cynomolgus C5aR stably expressed on CHO Flp-In cells (cynomolgus monkey (Macaca fascicularis))
T4 chain: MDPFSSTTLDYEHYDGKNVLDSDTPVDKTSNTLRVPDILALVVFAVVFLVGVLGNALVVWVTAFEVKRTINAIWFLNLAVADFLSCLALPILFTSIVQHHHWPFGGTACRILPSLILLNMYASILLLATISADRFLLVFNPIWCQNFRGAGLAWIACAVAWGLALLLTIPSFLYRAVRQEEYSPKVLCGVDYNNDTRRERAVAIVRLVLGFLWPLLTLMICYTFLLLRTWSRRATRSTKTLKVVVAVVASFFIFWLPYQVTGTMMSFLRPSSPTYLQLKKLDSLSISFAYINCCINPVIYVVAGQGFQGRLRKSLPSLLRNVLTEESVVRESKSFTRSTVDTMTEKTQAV

T5: full length human C5aR stably expressed on CHO Flp-In cells (human, UniProt P21730 1-350)
T5 construct: also called human C5aR expressed on CHO cells
T5 sequence: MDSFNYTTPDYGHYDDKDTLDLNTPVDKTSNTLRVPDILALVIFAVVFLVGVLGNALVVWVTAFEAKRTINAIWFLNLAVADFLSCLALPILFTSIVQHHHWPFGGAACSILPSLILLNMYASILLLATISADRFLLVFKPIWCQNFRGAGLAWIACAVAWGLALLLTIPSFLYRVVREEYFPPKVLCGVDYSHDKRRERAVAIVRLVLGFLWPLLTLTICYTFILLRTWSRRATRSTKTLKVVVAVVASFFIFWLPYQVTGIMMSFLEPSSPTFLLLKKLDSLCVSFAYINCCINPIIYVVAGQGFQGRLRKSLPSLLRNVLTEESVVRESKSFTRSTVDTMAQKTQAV

T6: Human FcγRIIa (1-209)-(131R)-HIS6 (human, UniProt P12318 34-209)
T6 construct: Extracellular region with C-terminal 6xHis tag; UniProt P12318 printed
T6 chain: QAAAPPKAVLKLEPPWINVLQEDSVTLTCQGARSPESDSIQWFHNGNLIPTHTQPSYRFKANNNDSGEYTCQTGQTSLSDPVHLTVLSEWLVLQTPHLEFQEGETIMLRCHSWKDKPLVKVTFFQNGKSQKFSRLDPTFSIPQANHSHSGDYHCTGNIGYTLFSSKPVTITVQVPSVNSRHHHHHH

T7: engineered version of human C5aR expressed on CHO cells of the PathHunter β-arrestin assay (DiscoveRx) (human, UniProt P21730 1-350)
T7 sequence (looked up): T5 sequence

B1: MAB #2 (antibody, human IgG1, lambda)
heavy: EVQLVESGGGLVKPGGSLRLSCAASGFTFSSYAMHWVRQAPGKGLEWVGRIKSVAQGGTTDYAAHVKGRFTISRDDSKNTLYLQMNSLKTEDTAVYYCARVSHSTFDVWGQGTLVTVSSASTKGPSVFPLAPSSKSTSGGTAALGCLVKDYFPEPVTVSWNSGALTSGVHTFPAVLQSSGLYSLSSVVTVPSSSLGTQTYICNVNHKPSNTKVDKRVEPKSCDKTHTCPPCPAPEAEGAPSVFLFPPKPKDTLMISRTPEVTCVVVDVSHEDPEVKFNWYVDGVEVHNAKTKPREEQYNSTYRVVSVLTVLHQDWLNGKEYKCKVSNKALPSSIEKTISKAKGQPREPQVYTLPPSREEMTKNQVSLTCLVKGFYPSDIAVEWESNGQPENNYKTTPPVLDSDGSFFLYSKLTVDKSRWQQGNVFSCSVMHEALHNHYTQKSLSLSPGK
light: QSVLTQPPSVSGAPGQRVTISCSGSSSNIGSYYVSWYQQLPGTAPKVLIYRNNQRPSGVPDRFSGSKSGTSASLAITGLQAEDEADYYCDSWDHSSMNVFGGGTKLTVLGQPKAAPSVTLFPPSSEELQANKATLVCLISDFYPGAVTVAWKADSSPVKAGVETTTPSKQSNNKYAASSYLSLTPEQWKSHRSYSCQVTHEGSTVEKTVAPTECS
notes: lambda 1 light chain
B2: MAB #1 (antibody, human IgG1, lambda)
heavy: B1 heavy with V54K, H103F
light: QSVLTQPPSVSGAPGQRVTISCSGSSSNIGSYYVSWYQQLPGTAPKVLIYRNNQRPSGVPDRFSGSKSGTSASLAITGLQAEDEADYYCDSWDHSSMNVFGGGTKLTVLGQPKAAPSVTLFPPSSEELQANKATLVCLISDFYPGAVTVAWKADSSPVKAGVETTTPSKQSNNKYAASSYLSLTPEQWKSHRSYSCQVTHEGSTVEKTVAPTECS
notes: lambda 1 light chain, VH3-15 framework

Experiments:
[1] = biological target: T1, full length rat C5aR stably expressed …; assay: FACS, CHO Flp-In cells expressing rat C5aR, single IgG concentration
[2] = biological target: T2, full-length human ChemR23 expressed on …; assay: FACS, CHO Flp-In cells expressing human ChemR23, single IgG concentration
[3] = biological target: T3, full-length human C3aR expressed on CHO …; assay: FACS, CHO Flp-In cells expressing human C3aR, single IgG concentration
[4] = biological target: T4, full length cynomolgus C5aR stably …; assay: FACS on Flp-In CHO cells, IgG titration
Protocol: (§1) The C5aR-CHO Flp-In™ cell lines were blocked and IgGs were added either in serial dilutions or at a single (high) concentration of 300 nM. For detection of IgG binding, an R-phycoerythrin (R-PE) conjugated anti-human IgG (Fc-gamma fragment specific)2 antibody was added and fluorescence was measured using the FACS Array or Novocyte device.

[5] = biological target: T5, full length human C5aR stably expressed …; assay: FACS on Flp-In CHO cells, IgG titration
Protocol: as §1

[6] = biological target: T8, Human FcγRIIIa (1-193)-(158V)-HIS6 (human, UniProt P08637 17-193); assay: BLI (Octet), IgG captured on Protein A sensors, FcγR titrated
T8 construct: Extracellular region with C-terminal 6xHis tag; UniProt P08637 printed
Protocol: (§2) 2.0 nm of IgGs diluted in Octet assay buffer (PBS, 0.05% (v/v) Tween-20, 0.1% (w/v) BSA) were captured on Protein A sensors (FortéBIO, Pall Life Sciences). Kinetic measurements were performed using 7 concentrations of Fc gamma receptors (2n serial dilution) in assay buffer. […] All sensorgrams were fitted using Data Analysis Software 10.0, (FortéBIO, Pall Life Sciences) to determine kₒₙ and koff rate constants, which were used to calculate KD. The raw data was fitted with a 1:1 binding model, with parameter Rₘₐₓ set to local.

[7] = biological target: T9, Human FcγRIIIa (1-193)-(158F)-HIS6 (human, UniProt P08637 17-193); assay: as above
T9 construct: Extracellular region with C-terminal 6xHis tag; UniProt P08637 printed
Protocol: as §2

[8] = biological target: T6, Human FcγRIIa (1-209)-(131R)-HIS6; assay: as above
Protocol: as §2

[9] = biological target: T7, engineered version of human C5aR …; assay: cell-based or functional assay

T9 sequence (P08637 other isoform, or with tags, fused parts or gaps): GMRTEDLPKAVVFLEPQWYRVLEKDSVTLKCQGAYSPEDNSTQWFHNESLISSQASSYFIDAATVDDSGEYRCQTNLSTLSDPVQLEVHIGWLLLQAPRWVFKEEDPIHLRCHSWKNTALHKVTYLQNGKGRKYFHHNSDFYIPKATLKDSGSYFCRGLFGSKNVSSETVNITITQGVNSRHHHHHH
T8 sequence (P08637 other isoform, or with tags, fused parts or gaps): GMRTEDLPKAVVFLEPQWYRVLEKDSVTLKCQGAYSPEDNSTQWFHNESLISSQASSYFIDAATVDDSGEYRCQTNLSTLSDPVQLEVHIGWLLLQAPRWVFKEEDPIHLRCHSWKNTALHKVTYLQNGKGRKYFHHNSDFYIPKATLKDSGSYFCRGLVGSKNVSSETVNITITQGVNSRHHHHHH

Binder	binding result [1]	binding result [2]	binding result [3]	EC50 [4] [nM]	EC50 [5] [nM]	binding result [6]	binding result [7]	binding result [8]	[%] inhibition at 1.2 nM C5a and 50 nM IgG, β-arrestin recruitment [9] [%]	[%] inhibition at 11 nM C5a and 50 nM IgG, β-arrestin recruitment [9] [%]	[%] inhibition at 100 nM C5a and 50 nM IgG, β-arrestin recruitment [9] [%]
B1	no binding (tested: 300 nM)	no binding (tested: 300 nM)	no binding (tested: 300 nM)	1.4	1.2	no binding	no binding	binds	90.5	75.2	31.2
B2	no binding (tested: 300 nM)	no binding (tested: 300 nM)	no binding (tested: 300 nM)	1.1	1.7	no binding	no binding	binds	91.9	79.9	41.8
